Patent US20250084169A1 (published 2025)
Numbering of substitutions follows the chain as printed. Like-named read-outs stand apart in the source and are kept apart here.

Assays:
recombinant human CD19 = target: T1, recombinant human CD19 (human, UniProt P15391 20-291)
T1 sequence (looked up): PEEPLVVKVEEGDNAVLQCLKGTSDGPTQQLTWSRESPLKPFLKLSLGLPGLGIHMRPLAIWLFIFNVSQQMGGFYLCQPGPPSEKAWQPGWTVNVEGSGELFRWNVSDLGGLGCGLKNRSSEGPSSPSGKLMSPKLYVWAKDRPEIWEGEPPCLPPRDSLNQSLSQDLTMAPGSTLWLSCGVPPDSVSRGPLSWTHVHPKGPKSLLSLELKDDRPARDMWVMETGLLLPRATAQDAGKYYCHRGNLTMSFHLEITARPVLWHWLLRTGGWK

[1] = target: T2, recombinant human full-length CD20 (human, UniProt P11836 1-297)
T2 sequence (looked up): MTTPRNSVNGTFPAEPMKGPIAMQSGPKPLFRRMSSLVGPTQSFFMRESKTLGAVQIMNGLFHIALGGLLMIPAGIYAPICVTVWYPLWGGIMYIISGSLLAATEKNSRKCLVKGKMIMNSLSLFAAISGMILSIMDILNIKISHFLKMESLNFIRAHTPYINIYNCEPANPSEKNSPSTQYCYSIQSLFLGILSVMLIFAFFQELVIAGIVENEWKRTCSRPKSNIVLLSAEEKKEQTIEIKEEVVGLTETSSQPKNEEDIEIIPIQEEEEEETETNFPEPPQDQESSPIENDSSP

[2] = target: T3, recombinant human Fc gamma RIIIa (CD16a) 158F (human, UniProt P08637 17-208)
T3 sequence (P08637 17-208 limits assumed): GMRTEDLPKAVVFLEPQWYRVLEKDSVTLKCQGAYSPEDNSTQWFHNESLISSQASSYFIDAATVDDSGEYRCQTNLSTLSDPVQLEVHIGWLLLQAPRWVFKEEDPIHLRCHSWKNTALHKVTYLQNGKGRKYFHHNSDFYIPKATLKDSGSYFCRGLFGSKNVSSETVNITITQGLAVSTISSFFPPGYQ

[3] = target: T4, recombinant human Fc gamma RIIIa (CD16a) 158V (human, UniProt P08637 17-208)
T4 sequence (P08637 17-208 F176V limits assumed): as the sequence (P08637 17-208 limits assumed) above, with F160V counted along it

[4] = target: T5, recombinant human Fc gamma RIIIb (CD16b) (human, UniProt O75015 17-200)
T5 sequence (O75015 17-200 limits assumed): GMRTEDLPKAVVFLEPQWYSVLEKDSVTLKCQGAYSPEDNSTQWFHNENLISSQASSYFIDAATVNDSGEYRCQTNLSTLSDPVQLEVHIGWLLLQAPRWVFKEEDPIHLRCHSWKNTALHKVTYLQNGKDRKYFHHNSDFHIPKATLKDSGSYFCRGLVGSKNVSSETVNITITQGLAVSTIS

[5] = target: T6, recombinant human Fc gamma RIIa (CD32a) 131H (human, UniProt P12318 36-218)
T6 sequence (looked up): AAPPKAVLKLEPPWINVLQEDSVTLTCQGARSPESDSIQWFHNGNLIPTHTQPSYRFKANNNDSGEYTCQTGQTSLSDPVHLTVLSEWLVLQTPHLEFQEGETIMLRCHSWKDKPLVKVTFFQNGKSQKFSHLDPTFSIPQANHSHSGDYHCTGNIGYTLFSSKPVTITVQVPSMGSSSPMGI

[6] = target: T7, recombinant human Fc gamma RIIa (CD32a) 131R (human, UniProt P12318 36-218)
T7 sequence (looked up): T6 sequence (looked up) with H132R

[7] = target: T8, recombinant human Fc gamma RIIb/c (CD32b/c) (human, UniProt P31994 46-217)
T8 sequence (looked up): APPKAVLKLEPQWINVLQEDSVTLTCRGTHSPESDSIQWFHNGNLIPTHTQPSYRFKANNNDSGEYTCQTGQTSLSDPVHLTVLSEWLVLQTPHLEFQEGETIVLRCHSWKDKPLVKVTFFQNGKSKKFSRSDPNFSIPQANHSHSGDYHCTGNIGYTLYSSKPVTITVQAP

[8] = target: T9, recombinant human Fc gamma RI (CD64) (human, UniProt P12314 16-288)
T9 sequence (P12314 16-288 limits assumed): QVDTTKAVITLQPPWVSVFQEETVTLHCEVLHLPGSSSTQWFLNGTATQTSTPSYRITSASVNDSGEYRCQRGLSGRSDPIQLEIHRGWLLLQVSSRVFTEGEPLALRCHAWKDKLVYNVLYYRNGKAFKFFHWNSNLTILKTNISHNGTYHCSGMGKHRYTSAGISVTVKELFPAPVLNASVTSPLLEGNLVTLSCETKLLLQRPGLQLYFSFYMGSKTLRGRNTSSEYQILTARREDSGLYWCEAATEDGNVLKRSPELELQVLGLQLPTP

[9] = target: T10, cynomolgus monkey Fc gamma receptor CD16 (cynomolgus monkey, UniProt Q8SPW2 17-208)
T10 sequence (Q8SPW2 17-208 limits assumed): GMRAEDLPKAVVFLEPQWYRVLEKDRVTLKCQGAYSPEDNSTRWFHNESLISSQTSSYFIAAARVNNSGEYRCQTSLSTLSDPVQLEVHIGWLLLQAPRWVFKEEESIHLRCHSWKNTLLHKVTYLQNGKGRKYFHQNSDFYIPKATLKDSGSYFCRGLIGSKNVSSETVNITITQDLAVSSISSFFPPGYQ

[10] = target: T11, cynomolgus monkey Fc gamma receptor CD32a (cynomolgus monkey)
[11] = target: T12, cynomolgus monkey Fc gamma receptor CD32b (cynomolgus monkey)
[12] = target: T10, cynomolgus monkey Fc gamma receptor CD16; remark: listed apart in the source
[13] = target: T11, cynomolgus monkey Fc gamma receptor …; remark: listed apart in the source
[14] = target: T12, cynomolgus monkey Fc gamma receptor …; remark: listed apart in the source
[15] = target: T13, recombinant cynomolgus monkey CD19 (cynomolgus monkey, UniProt A0A2K5W8L9 20-292)
T13 sequence: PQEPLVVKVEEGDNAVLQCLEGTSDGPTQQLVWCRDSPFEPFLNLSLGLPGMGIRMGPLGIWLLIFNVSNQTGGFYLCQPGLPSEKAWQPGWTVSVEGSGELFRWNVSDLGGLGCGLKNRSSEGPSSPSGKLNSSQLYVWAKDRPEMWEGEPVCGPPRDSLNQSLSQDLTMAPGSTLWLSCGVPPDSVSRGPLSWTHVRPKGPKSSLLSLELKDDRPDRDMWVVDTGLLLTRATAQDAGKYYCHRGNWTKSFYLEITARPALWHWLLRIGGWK

[16] = target: T14, recombinant cynomolgus monkey CD20 (cynomolgus monkey, UniProt M4ZHZ6 1-297)
T14 sequence: T2 sequence (looked up) with S25P, F31L, T51A, A157V, K217R, N226S, I227V, T239V

[17] = target: T3, recombinant human Fc gamma RIIIa …; remark: listed apart in the source
[18] = target: T4, recombinant human Fc gamma RIIIa …; remark: listed apart in the source
[19] = target: T5, recombinant human Fc gamma RIIIb (CD16b); remark: listed apart in the source
[20] = target: T7, recombinant human Fc gamma RIIa (CD32a) …; remark: listed apart in the source
[21] = target: T8, recombinant human Fc gamma RIIb/c …; remark: listed apart in the source
[22] = target: T9, recombinant human Fc gamma RI (CD64); remark: listed apart in the source

B1: HB2198 (bispecific antibody, human IgG1, kappa)
heavy 1: QVQLVQSGGGVVQPGRSLRLSCAASGVSLPDYGVSWVRKAPGKGLEWVAVIWGSETTYYNSALKSRFTISRDNSKNTLYLQMSSLRAEDTAVYYCAKHYYYGGSFAMDYWGQGTLVTVSSASTKGPSVFPLAPSSKSTSGGTAALGCLVKDYFPEPVTVSWNSGALTSGVHTFPAVLQSSGLYSLESVVTVPSSSLGTQTYICNVNHKPSNTKVDKKVEPKSCTDWSPYADQSIKVRISLKSALGDKAYEWNDNEMYLFRSSVAYAMRQYFLKVKNQMILFGEEDVRVANLKPRISFNFFVTAPKNVSDIIPRTEVEKAIRMSRSRINDAFRLNDNSLEFLGIQPTLGPPNQPPVSTSTSPTRSMAPGAVHLPQPVSTRDKTHTCPPCPAPELLGGPDVFLFPPKPKDTLMISRTPEVTCVVVDVSHEDPEVKFNWYVDGVEVHNAKTKPREEQYNSTYRVVSVLTVLHQDWLNGKEYKCKVSNKALPAPEEKTISKAKGQPREPQVCTLPPSRDELTKNQVSLSCAVKGFYPSDIAVEWESNGQPENNYKTTPPVLDSDGSFFLVSKLTVDKSRWQQGNVFSCSVMHEALHNRFTQKSLSLSPG
heavy 2: QIVLSQSPAILSASPGEKVTMTCRASSSVSYIHWFQKKPGSSPKPWIYATSNLASGVPVRFSGSGSGTSYSLTISRVEAEDAATYYCQQWTSNPPTFGGGTKVEIKSSASTKGPSVFPLAPSSKSTSGGTAALGCLVKDYFPEPVTVSWNSGALTSGVHTFPAVLQSSGLYSLKSVVTVPSSSLGTQTYICNVNHKPSNTKVDKKVEPKSCDKTHTCPPCPAPELLGGPDVFLFPPKPKDTLMISRTPEVTCVVVDVSHEDPEVKFNWYVDGVEVHNAKTKPREEQYNSTYRVVSVLTVLHQDWLNGKEYKCKVSNKALPAPEEKTISKAKGQPREPQVYTLPPCRDELTKNQVSLWCLVKGFYPSDIAVEWESNGQPENNYKTTPPVLDSDGSFFLYSKLTVDKSRWQQGNVFSCSVMHEALHNHYTQKSLSLSPG
light 1: DIQMTQSPSSLSASVGDRVTITCRASQDISKYLNWYQEKPGKAIKLLIYHTSRLHSGVPSRFSGSGSGTDFTLTISSLQPEDFATYYCQQGATLPYTFGPGTKLEIKRTVAAPSVFIFPPSDEQLKSGTASVKCLLNNFYPREAKVQWKVDNALQSGNSQESVTEQDSKDSTYSLSSTLTLSKADYEKHKVYACEVTHQGLSSPVTKSFNRGEC
light 2: QVQLQQPGAELVKPGASVKMSCKASGYTFTSYNMHWVKETPGRGLEWIGAIYPGNGDTSYNQKFKGKATLTADKSSSTAYMQLSSLTSEDSAVYYCARSTYYGGDWYFNVWGAGTLVTVSSASVAAPSVFIFPPSDEQLKSGTASVECLLNNFYPREAKVQWKVDNALQSGNSQESVTEQDSKDSTYSLSSTLTLSKADYEKHKVYACEVTHQGLSSPVTKSFNRGEC
Kd (recombinant human CD19): 1.5 nM
Kd [1]: 0.2 nM
Kd [2]: < 2 nM
Kd [3]: < 2 nM
Kd [4]: < 2 nM
Kd [5]: < 2 nM
Kd [6]: < 2 nM
Kd [7]: 2.2 nM
Kd [8]: < 0.02 nM
Kd [9]: 2 nM
Kd [10]: 4 nM
Kd [11]: 3.4 nM
Kd [12]: 1.76 nM
Kd [13]: 305 nM
Kd [14]: 218 nM
Kd [15]: 410 nM
Kd [16]: 1.4 nM
Kd [17]: 15.7 nM
Kd [18]: 4.19 nM
Kd [19]: 95 nM
Kd [20]: 128 nM
Kd [21]: 283 nM
Kd [22]: < 0.02 nM

B2: B19c66AAC9 (antibody, human IgG1, kappa)
light: not shown
heavy: QVQLQQSGAELVRPGSSVKISCKASGYAFSSYWMNWVKQRPGQGLEWIGQIWPGDGDTNYNGKFKGKATLTADESSSTAYMQLSSLASEDSAVYFCARRETTTVGRYYYAMDYWGQGTTVTVSSASTKGPSVFPLAPSSKSTSGGTAALGCLVKDYFPEPVTVSWNSGALTSGVHTFPAVLQSSGLYSLSSVVTVPSSSLGTQTYICNVNHKPSNTKVDKKVEPKSCDKTHTCPPCPAPKRRGGPSVFLFPPKPKDTLMISRTPEVTCVVVDVSHEDPEVKFNWYVDGVEVHNAKTKPREEQYNSTYRVVSVLTVLHQDWLNGKEYKCKVSNKALPAPIEKTISKAKGQPREPQVYVLPPSRDELTKNQVSLLCLVKGFYPSDIAVEWESNGQPENNYLTWPPVLDSDGSFFLYSKLTVDKSRWQQGNVFSCSVMHEALHNHYTQKSLSLSPGK
chain: CPPCPAPEDEGGPSVFLFPPKPKDTLMISRTPEVTCVVVDVSHEDPEVKFNWYVDGVEVHNAKTKPREEQYNSTYRVVSVLTVLHQDWLNGKEYKCKVSNKALPAPIEKTISKAKGQPREPQVYVYPPSRDELTKNQVSLTCLVKGFYPSDIAVEWESNGQPENNYKTTPPVLDSDGSFALVSKLTVDKSRWQQGNVFSCSVMHEALHNHYTQKSLSLSPGK
Kd (CD19 (target of Table 9)): 21 nM
